assay: label from the status in PepcDB records
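Also: failed if final PepcDB status was selected cloned or expressed and not failed if soluble or beyond.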

Sequence | protein production
MKILSIHDLQIIRKRAEHHLSLREESNEKVSEKCCGLASGTTHLQILICGGTGCKASSSQGITENLQKAIERNGITDKVDVITVGCFGFCEKGPIVKIIPDNTFYTQVTPEDAEEIISEHIIGGRRIERLLYIDPKTEQTVSDSKHMDFYRKQLRIALRNCGFIDSENIEEYIAREGYFALADCLLNKQPADVIDIIKRSGLRGRGGGGFPTGLKWEFASKQVSNVKYVVCNADEGDPGAFMDRSIMEGDPHSIVEAMCICGYSIGSSKGLVYIRAEYPLAINRLKKAIEQAREYGLLGDHILGTDFSFDIEIRYGAGAFVCGEETALIHSMEGKRGEPTLKPPFPAESGYLGKPTNVNNVETLANIPIILTKGAEWFASIGTERSKGTKVFALAGKINNVGLIEVPMGTTLREVIYEIGGGIKGGKKFKAVQTGGPSGGCLTEKHLDTPIDFDNLLAAGSMMGSGGMIVMDEDDCMVSVARFYLDFTVEESCGKCTPCRIGNKRLLELLNKITEGRGTEKDLDTLATLGRVIKDTALCGLGQTSPNPVLSTLDNFRDEYLEHVRDKTCRAKQCKSLLTYTINPELCIGCHLCAKNCPADAISGLVRKPHVIHPEKCIKCGMCMARCKFKAILVC | failed
MKILVIGAGPAGLVFASQLKQARPLWAIDIVEKNDEQEVLGWGVVLPGRPGQHPANPLSYLDAPERLNPQFLEDFKLVHHNEPSLMSTGVLLCGVERRGLVHALRDKCRSQGIAIRFESPLLEHGELPLADYDLVVLANGVNHKTAHFTEALVPQVDYGRNKYIWYGTSQLFDQMNLVFRTHGKDIFIAHAYKYSDTMSTFIVECSEETYARARLGEMSEEASAEYVAKVFQAELGGHGLVSQPGLGWRNFMTLSHDRCHDGKLVLLGDALQSGHFSIGHGTTMAVVVAQLLVKALCTEDGVPAALKRFEERALPLVQLFRGHADNSRVWFETVEERMHLSSAEFVQSFDARRKSLPPMPEALAQNLRYALQRLEHHHHHH | not failed
MKILYIVLDGAADSPTSPRKTLEEASKPNIDSLGSHAVCGMVYTVKPGVAPQSDYATLSLLGYNPDEYYPGRGPLEAFGAGIEMRRGDIALRANFATVDPGTLRIIDRRVGRSLTSREARELASAVDGMELEDGEGTALFRATIGHRGVLVLRHRSKPLSDAISNTDPAYERRGRFSVALEKYEPFIKLSNPLVEDEAAVLAARMLNEFTLKAVEILDSHPVNLAREKRGLLKANAILSRDAGGLPEEKPPSFQERFGLRGASIVEMVVERGISRYIGLDDIRVEIEGRAREEVYREEAARAVEALETHDLVYVHLKGPDEPGHDGSFEGKIRAVEDIDKHFFAPLLDRLSSAGLEPAFVVTSDHATPWDVGAHSGDPVPLMISHQSIQ | failed
MKINKIDTRHGTANQSTFSHGNCLPYTGFPWGMNYFSPSTGAARGAWWFHPEDRTFEGYRITHQPSPWMGDFSHLTMTPVAGPLPETSLWHTVSSYRPEESTFNPTQLKITQLRYQITSQLIPSMYGGILSMNYQNLSLKDNGLMLHLPGSYELQQLDDYSLELSIINFAGCEDENFTFYLKFTADQPFVLSGNLSDEDSSVRLDFKAAKQVQIHFATSFISKEQAALNLEREQDNSAETYLENAESAWNNLFSRIEIEHHNQQEVSTFYHNLYRSFLFPQTFYEFDQEHQKIHYDTSSKTVKKGPLYTNNGFWDTFRTVYPLYSLIAVDEYGDMLEGFLNSYRATGFLPKWLSPDERGLMPGTLIDAVIADAASKNIRPDLMPEFLEAMKKGATSQSENSNYGRRGTKDYLKLGYVPLTHHESVNHTLDYAFSDYCISQVAKQTGDKEISDFYAHQAKDYQNIFDSETGFMRAKDADGNFRADFLDIRWGRDYAEGSAWQTSWSVLHDFAGLIKLHGSRENFENKLIELCNQRPNFNVEGYGFEIHEMSEMAAIEFGQVAISNQPSFHYPYLFSYIGKPWMATPLIKNLLTETFNDSPKGYPGDEDNGTMAAWYIFSSLGFYPVTAASNQYVLGIPLWDKARINLSSGQQLTILAEPNAPQQVFVNQITFTDKKVNDTFIKHEELIKGGTLKFDLGIVPNPLKYTNEQLPYSLTEN | failed
MKIQDLLRKDIMILDLQAISKEVAIDEMITKLVEKDIVHDFDVFKKSIMTREEQTSTGLGDGIAMPHSKNIVVDKPAVLFAKSNKGVDYKALDGQPTDLFFMIAAPQGANDTHLAALAELSQYLLKDGFADKLRAAATPEAVIAVFDEASTAKEEV | failed
MKIRHVSHQAWLLFLVALLVLGSGLGLRDPHPADEPRFALVAKQMVDSGEWLFPHRGNELYSDKPPMLMWLQAAFYTLFGNLKVAFLLPSLLAALGTLVCVYDLGRRLWTRRIGLYAAYALLFTFHFTYQAKRAQIDALVVFFITFANYGLLRHLLFGGHWRWWVLGWFAAGLGTITKGVGALALLIVLPAAAASLAGWPRVRVHVRDVRFWLGPLGFLVAVSLWLVPMVMTALSAQQPEYRAYLNDILLRQTFGRYTKSWDHAQPPWYFLQVMLVMWIPTLLALPWALPAWWRRMRRRDPRYLLPLAWCVLLLVFFSIPSGKRDVYMLPALPMVCLALAPLLPGLLRKRACSRLLLAFGVLLVLVLAVFGAGLLIRSDWQARMMEGTTLILEDVRVIAWGGIAVASWGVFSLLAFSQRRPVVAVFSVLTTLWLVFGLVLMPVVNDSSSARGVMMIAGKRIGPAAELGLVAWKEQNLLMADRSVATFGFLVPWDEQLRRGIAWQVQRPRQRWLLVQEAAMFGCINRSASVFVGSSNRRAWWLVPAWAVHGACIMTQAEHDRLSKQ | failed
MKIRKLTNEEIKGACAFAVNIYNIAIRGCFRTLDCHRYFDEYMDADRLTDEERTGALVVFGAFDSNVLCGVCGMTNEGHITMLYVHPQYLRRGIGKKLLERVRIYARMQLKLMQVSVNAMPAYTAEYFMHVGFKSAYQGGFCNGQGDMYVPMTAKSIYQVEYTPRHIADKTFIAISVGFTCLVFVSGVIYAVCAGLTP | failed
MKIRNACKEDAQQLIAIYASYVEKTAITFEYQVPSLEEFEERIEKTKQKFPYLVAEEEGILQGYAYASVYYNHAAYDWTVELSIYIKEEARGKHIGSQLYASLERNLQEAGFVNLLVCIALPNNASLTFHKKHGYEQVAHFKKVGYKFDKWYDIVWMQKRLLD | failed
MKIRSADASDLDSLLRLNYQIGVMHFENAPESFVKPSSEEKEFLLKALNDQSRLFLVAEISGDVVGFVTATVTQNEAIPFLVKTPICRVGTIVVDENARVSGIGTQLMARCNDWAKSQGAEQIRLEVMAFNKSAQSFYVKLGFEEQSKTMWKTVN | failed
MKISPLCPSCLLGRVYYEAKLVTDDEDLISQCVDESLKILAENYSSAPINAHLATRIHRRVYEILGVEDPYAEVKARANEVARQVLPLAKEIVEGSDDPFKTAVIVSIVGNNFDYGVQGHKVVEEEFRDFLKRKVQEGLKINDTERIKELSSGKVVYLTDNAGEIFFDTLLMKEIKRRCEKLTAVVRGRPIISDATIEDARLARVDKIADELLTNGKGAIGIIMDELPDETRKALEEADLIVAKGMANYECLSDGSLKPIAFLLTAKCEPVARDIGVNVGDMVAKVVE | not failed
MKISVIISNYNYARYLSRAINSVLAQTHSDIEIVIVDDGSTDNSRDVITQLQEQAPDKIKPIFQANQGQGGAFNAGFAAATGEVVAFLDADDVWKPHKLQRIVEVFQTSDVVGVMHHLDIIDGNDKTIDQASTQGPKLSEDLASVILQTGNAWCFPPTSGLAYRREVLEKVFPIDPVKWRIWADGCIIYCTAFLGKIKTLQENLAYYRIHGANNHMSAASATSEQEAKSQAGIEMTNQYINDFLVRIGYGARVDLSRNLQYRRTKYYQRSQWDLREVWGISRLILGWPFYSGQERAYYLARFLFKSGKFLLRSDVHTESTTI | failed
MKISVITINYNNGEQLEATIQSVVSNVTVLRELLGEKAEYIVIDGGSVDCSVSVLQKYSEYISYWISEKDKGIYHAMNKGISVAQGEYCFFLNSGDTFYEDDTLKKALLFLKEDFVCGNAVLKYAGGINEWSAPEIVNTLFFMQRFSVCHQSLFIRTELLKSHPYNETLMIVADYEQMFYEIAVNHRSYKKIDLTICYYGCDGVSSDHEKADAEKRSVINEFRYLGYIEPDELWNVVSKLKIGTRKYRLLLSLAKCLTSSPKYWVRLEHHHHHH | not failed
MKISVPTYPFARERYWISVPEMKTSTVNHILHPLVHRNTSDFTEQRFSSVFTGTEFFLSDHVVQGQKILPGVAYLEMAREAAEKAAGDLDGEQRVVSLKDIVWVRPITIESEPKEIHIGLFPEDNGDISFDIYSSSEHKEEALTIHCQGRAVISDEAETSILNLSSIQTECSLDTVTSEQCYAAFRKIGLDYGEGYQGIEKVYVGKDQLLAKISLPAFLKNDKQHFALHPSLMDSAFHATVGFIVSSVNAAGQAQTLSLPFALQEVDIFSPCPEKIWSYIRYSSDSLEHHHHHH | failed

Source: a protein production outcome set (Wang et al. 2014)
